Values quoted from earlier work as cited in patent publication US9408889B2, “Fusion peptide designed to reduce plaque bacteria and yeast in the oral cavity” (RUTGERS, THE STATE UNIVERSITY OF NEW JERSEY, priority 2011, dated 2016).

Tested on: Streptococcus mutans
Conditions: full length Lf variant expressed in an insect vector

B1: arginine variant: full length lactoferrin (Lf) variant with arginine at position 29, the more common variant (protein, UniProt P02788 1-710, looked up)
chain: MKLVFLVLLFLGALGLCLAGRRRSVQWCAVSQPEATKCFQWQRNMRKVRGPPVSCIKRDSPIQCIQAIAENRADAVTLDGGFIYEAGLAPYKLRPVAAEVYGTERQPRTHYYAVAVVKKGGSFQLNELQGLKSCHTGLRRTAGWNVPIGTLRPFLNWTGPPEPIEAAVARFFSASCVPGADKGQFPNLCRLCAGTGENKCAFSSQEPYFSYSGAFKCLRDGAGDVAFIRESTVFEDLSDEAERDEYELLCPDNTRKPVDKFKDCHLARVPSHAVVARSVNGKEDAIWNLLRQAQEKFGKDKSPKFQLFGSPSGQKDLLFKDSAIGFSRVPPRIDSGLYLGSGYFTAIQNLRKSEEEVAARRARVVWCAVGEQELRKCNQWSGLSEGSVTCSSASTTEDCIALVLKGEADAMSLDGGYVYTAGKCGLVPVLAENYKSQQSSDPDPNCVDRPVEGYLAVAVVRRSDTSLTWNSVKGKKSCHTAVDRTAGWNIPMGLLFNQTGSCKFDEYFSQSCAPGSDPRSNLCALCIGDEQGENKCVPNSNERYYGYTGAFRCLAENAGDVAFVKDVTVLQNTDGNNNEAWAKDLKLADFALLCLDGKRKPVTEARSCHLAMAPNHAVVSRMDKVERLKQVLLHQQAKFGRNGSDCPDKFCLFQSETKNLLFNDNTECLARLHGKTTYEKYLGPQYVAGITNLKKCSTSPLLEACEFLRK
modifications: full-length
notes: full length lactoferrin (Lf) variant with arginine at position 29, the more common variant
  effect on survival of S. mutans: little to no effect
